From article PMC9654039, “FUS Microphase Separation: Regulation by Nucleic Acid Polymers and DNA Repair Proteins”

B1: dsDNA (30 bp, one-nucleotide gap) (dsDNA)
DNA 1: GGGTTGGTTTGCG
DNA 2: ATTCACAGTTCTCCGC
DNA 3: GCGGAGAACTGTGAATGCGCAAACCAACCC
modifications: 5'-phosphate on S4 (downstream strand); 3'-OH on S3

How the values were obtained:
FUS∆LCD [1] = target: T1, FUS∆LCD (UniProt P35637 164-526); experiment: fluorescence titration (Cy3-protein intensity); details: apparent Kd; concentration as rNMP (nucleotides), not molecules; Hill fit n 3.07; Buffer, salt, pH and temperature of the fluorescence titrations are not given in the material; concentrations are in nucleotide units. Poly(ADP-ribose) (Kd,app …)
FUS∆LCD [2] = target: T1, FUS∆LCD; experiment: fluorescence titration (Cy3-protein intensity); apparent Kd; concentration as dNMP (nucleotides), not molecules; Hill fit n 1.12; Buffer, salt, pH and temperature of the fluorescence titrations are not given in the material; concentrations are in nucleotide units. Poly(ADP-ribose) (Kd,app); details: protein: recombinant; tags: Cy3 label (sulfo-cyanine 3 NHS ester); blunt; one-nucleotide gap between strands 1 and 2, opposite G of strand 3

T1 sequence (P35637 164-526): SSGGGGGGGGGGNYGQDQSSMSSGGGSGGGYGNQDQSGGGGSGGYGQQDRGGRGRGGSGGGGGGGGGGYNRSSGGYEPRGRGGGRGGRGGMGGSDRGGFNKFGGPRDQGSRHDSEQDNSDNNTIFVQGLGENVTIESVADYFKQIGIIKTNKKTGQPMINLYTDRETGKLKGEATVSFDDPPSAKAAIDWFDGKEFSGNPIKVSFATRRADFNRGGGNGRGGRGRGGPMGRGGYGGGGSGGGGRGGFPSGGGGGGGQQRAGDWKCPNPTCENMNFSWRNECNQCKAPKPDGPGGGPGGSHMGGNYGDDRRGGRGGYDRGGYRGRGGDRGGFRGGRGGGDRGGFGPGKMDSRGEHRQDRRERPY

Row | Molecule | Kd (FUS∆LCD [1]) | Kd (FUS∆LCD [2])
1 | RNA (~3000 nt luciferase mRNA) | 183 nM | –
2 | B1 | – | 2560 ± 159 nM
